Test results taken from PMC9687798, “Atypical Substrates of the Organic Cation Transporter 1” (Biomolecules, 2022).
Values joined by “and” are separate entries in the source; they are usually repeats but may differ in a detail not shown here. Equal entries are not always repeated.

Legend:
human OCT1*1 (wild-type) [1] = molecular target: T1, human OCT1*1 (wild-type) (Homo sapiens, UniProt O15245); test: Cellular uptake ratio, OCT1-overexpressing HEK293 cells vs empty vector; format: cell-based; details: for OCT1 transport category: based on ratio uptake data at 1 µM
T1 sequence (O15245 1-554): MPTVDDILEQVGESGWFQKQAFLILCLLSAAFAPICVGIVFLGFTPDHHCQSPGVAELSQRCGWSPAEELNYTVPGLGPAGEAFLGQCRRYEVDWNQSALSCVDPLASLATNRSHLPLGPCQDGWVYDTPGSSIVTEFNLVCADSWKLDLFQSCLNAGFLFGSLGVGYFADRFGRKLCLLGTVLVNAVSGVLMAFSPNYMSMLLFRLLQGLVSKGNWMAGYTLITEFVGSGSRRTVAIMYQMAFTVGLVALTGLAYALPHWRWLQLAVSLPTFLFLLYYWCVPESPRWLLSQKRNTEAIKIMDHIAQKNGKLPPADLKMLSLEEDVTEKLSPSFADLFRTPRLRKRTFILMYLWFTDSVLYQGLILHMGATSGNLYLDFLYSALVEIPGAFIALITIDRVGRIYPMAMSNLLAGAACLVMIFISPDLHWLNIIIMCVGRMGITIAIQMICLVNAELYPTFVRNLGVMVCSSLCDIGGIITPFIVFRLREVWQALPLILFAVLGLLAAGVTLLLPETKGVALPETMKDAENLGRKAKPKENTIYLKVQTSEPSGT
Protocol: (§1) The wild-type cell lines of OCT1 and OCT2, as well as the variant cell lines OCT1*2 and *3, were generated using the Flp-In system (Thermo Fisher Scientific, Darmstadt, Germany) as described in previous publications. The cell line overexpressing OCT3 was a kind gift from Dr. Koepsell and Dr. Gorbulev (University of Würzburg, Germany). Cells transfected with the empty pcDNA5/FRT vector were used for the transport experiments as a control cell line. All cells were cultured approximately up to passage 30.
(§2) Forty-eight hours before the transport experiments, 600,000 cells were plated on 12-well plates pre-coated with poly-D-lysine and incubated at 37 °C with 5% CO2. The prepared 12-well plate with cells was positioned on a heating plate pre-warmed to 37 °C. After removing the medium, the cells were washed with 37 °C HBSS+ (10 mM HEPES in Hank’s balanced salt solution, pH 7.4). Then, one pre-defined concentration of a substrate was added to each well. The incubation period was stopped by adding 2 mL of 4 °C HBSS+ and removing the cells from the heating plate. The cells were washed twice with 4 °C HBSS+. For cell lysis, the cells were incubated for 15 min with 500 µL of 80% acetonitrile (LGC Standards, Wesel, Germany), which contained a respective internal standard (Table 1).
(§3) For concentration-dependent transport, the cells were incubated with defined substrate concentrations (0.1, 1, 10, 30, 100, 300, 600, 1000 µM) for the respective pre-defined incubation times. […] The uptake by a transporter was normalised to the uptake by empty vector-transfected cells. […] The results of transport experiments were normalized to the total protein concentration per well. Total protein quantification was performed using a bicinchoninic acid assay with bovine serum albumin as standard.
(§4) The ratios of cellular uptake were calculated by dividing the total uptake of transporter-overexpressing cells by the total uptake into empty vector transfected cells. The concentration-dependent cellular net uptake was used for analysis of transport kinetics by subtracting for each substrate concentration the uptake of empty vector-transfected cells from the uptake of transporter-overexpressing cells. […] The intrinsic clearance Clint was expressed with the ratio of Vmax and KM.

human OCT1*1 (wild-type) [2] = molecular target: T1, human OCT1*1 (wild-type); test: Concentration-dependent uptake (transport kinetics) in HEK293 cells overexpressing OCT1 wild-type; details: for Clint (±SEM): intrinsic clearance = ratio of Vmax and KM, OCT1 wild-type
OCT1 (wild-type, OCT1*1) = OCT1 (wild-type, OCT1*1) (Homo sapiens, UniProt O15245); test: as above; details: human, HEK293 cells stably overexpressing human OCT1*1 (wild-type), pH 7.4, KM (±SEM), net uptake (OCT1 minus empty vector), HEK293, 0.1-1000 µM substrate, Michaelis–Menten
OCT3 = molecular target: T2, OCT3 (Homo sapiens, UniProt O75751); test: Cellular uptake ratio, OCT3-overexpressing HEK293 cells vs empty vector; format: cell-based; details: for OCT3 transport category: based on ratio uptake data at 1 µM
T2 construct: expressed in transfected cells; host or cells: HEK293, stably transfected; gift from Dr. Koepsell and Dr. Gorbulev (University of Würzburg)
T2 sequence (O75751 1-556): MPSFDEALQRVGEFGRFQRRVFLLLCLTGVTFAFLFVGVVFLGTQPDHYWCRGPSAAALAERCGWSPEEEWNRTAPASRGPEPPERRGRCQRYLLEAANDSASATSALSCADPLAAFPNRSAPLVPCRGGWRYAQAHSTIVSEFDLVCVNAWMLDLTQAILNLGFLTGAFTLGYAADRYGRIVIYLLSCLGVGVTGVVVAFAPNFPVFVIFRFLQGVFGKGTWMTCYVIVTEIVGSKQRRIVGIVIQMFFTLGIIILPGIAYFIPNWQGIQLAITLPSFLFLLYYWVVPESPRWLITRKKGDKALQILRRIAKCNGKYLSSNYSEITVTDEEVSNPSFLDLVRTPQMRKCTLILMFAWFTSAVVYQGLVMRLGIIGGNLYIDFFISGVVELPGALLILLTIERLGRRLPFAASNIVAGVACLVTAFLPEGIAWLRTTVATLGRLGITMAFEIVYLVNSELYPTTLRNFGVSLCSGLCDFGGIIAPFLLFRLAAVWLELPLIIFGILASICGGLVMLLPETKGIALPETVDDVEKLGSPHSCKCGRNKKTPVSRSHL
Protocol: as §1, §2, §3, §4

wild-type human OCT2 = molecular target: T3, wild-type human OCT2 (Homo sapiens, UniProt O15244); test: Cellular uptake ratio, OCT2-overexpressing HEK293 cells vs empty vector; format: cell-based; details: based on ratio uptake data at 1 µM
T3 sequence (O15244 1-555): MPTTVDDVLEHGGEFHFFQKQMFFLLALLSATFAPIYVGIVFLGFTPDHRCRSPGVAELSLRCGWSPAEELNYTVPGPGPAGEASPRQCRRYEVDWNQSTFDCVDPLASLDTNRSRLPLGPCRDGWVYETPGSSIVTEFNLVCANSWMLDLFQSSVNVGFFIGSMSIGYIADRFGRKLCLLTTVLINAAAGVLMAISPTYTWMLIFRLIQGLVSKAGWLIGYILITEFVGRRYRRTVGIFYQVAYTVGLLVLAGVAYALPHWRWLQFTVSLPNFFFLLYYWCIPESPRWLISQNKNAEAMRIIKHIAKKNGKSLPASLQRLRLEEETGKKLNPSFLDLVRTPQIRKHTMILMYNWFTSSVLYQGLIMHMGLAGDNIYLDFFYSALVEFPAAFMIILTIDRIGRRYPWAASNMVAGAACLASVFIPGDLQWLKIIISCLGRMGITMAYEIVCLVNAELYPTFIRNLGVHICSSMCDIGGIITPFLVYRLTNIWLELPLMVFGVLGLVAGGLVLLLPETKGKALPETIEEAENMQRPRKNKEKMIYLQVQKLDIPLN
Protocol: as §1, §2, §3, §4

hCMEC/D3 = details: BBB-representing cell line hCMEC/D3; cited from earlier work
[3] = Human pharmacokinetic background values; format: in vivo; details: blood, conversion of the KM of about 60 µM, read-out: blood concentration corresponding to KM
[4] = human; no reference given; cited from earlier work
[5] = substrate: Nc1nc2c(ncn2COCCO)c(=O)[nH]1; test: cells, lysate or membranes; details: other: net uptake (OCT1 minus empty vector), HEK293, 0.1-1000 µM substrate, Michaelis–Menten; pH 7.4
[6] = substrate: Nc1ccn([C@@H]2CS[C@H](CO)O2)c(=O)n1; test: cells, lysate or membranes; details: other: net uptake (OCT1 minus empty vector), HEK293, 0.1-1000 µM substrate, Michaelis–Menten; pH 7.4
[7] = substrate: C[N+]1(C)CCC[C@H]1C(=O)[O-]; test: cells, lysate or membranes; details: other: net uptake (OCT1 minus empty vector), HEK293, 0.1-1000 µM substrate, Michaelis–Menten; pH 7.4
[8] = substrate: C[C@H]1COc2c(N3CCN(C)CC3)c(F)cc3c(=O)c(C(=O)O)cn1c23; test: cells, lysate or membranes; details: other: net uptake (OCT1 minus empty vector), HEK293, 0.1-1000 µM substrate, Michaelis–Menten; pH 7.4
[9] = substrate: COc1cc(Cc2cnc(N)nc2N)cc(OC)c1OC; test: cells, lysate or membranes; details: other: net uptake (OCT1 minus empty vector), HEK293, 0.1-1000 µM substrate, Michaelis–Menten; pH 7.4
[10] = substrate: Nc1nc(=O)n([C@@H]2CS[C@H](CO)O2)cc1F; test: cells, lysate or membranes; details: other: net uptake (OCT1 minus empty vector), HEK293, 0.1-1000 µM substrate, Michaelis–Menten; pH 7.4
[11] = substrate: CNS(=O)(=O)Cc1ccc2[nH]cc(CCN(C)C)c2c1; test: cells, lysate or membranes; details: other: net uptake (OCT1 minus empty vector), HEK293, 0.1-1000 µM substrate, Michaelis–Menten; pH 7.4
[12] = substrate: N[C@@H](Cc1ccc(O)c(O)c1)C(=O)O; test: cells, lysate or membranes; details: other: net uptake (OCT1 minus empty vector), HEK293, 0.1-1000 µM substrate, Michaelis–Menten; pH 7.4
[13] = substrate: C[C@](N)(Cc1ccc(O)c(O)c1)C(=O)O; test: cells, lysate or membranes; details: other: net uptake (OCT1 minus empty vector), HEK293, 0.1-1000 µM substrate, Michaelis–Menten; pH 7.4
[14] = substrate: N=C(N)c1ccc(OCCCCCOc2ccc(C(=N)N)cc2)cc1; test: cells, lysate or membranes; details: other: net uptake (OCT1 minus empty vector), HEK293, 0.1-1000 µM substrate, Michaelis–Menten; pH 7.4
[15] = substrate: CCCCC[C@H](O)/C=C/[C@H]1[C@H](O)CC(=O)[C@@H]1C/C=C\CCCC(=O)O; test: cells, lysate or membranes; details: pH 7.4
[16] = substrate: Nc1ccn([C@H]2CC[C@@H](CO)O2)c(=O)n1; test: cells, lysate or membranes; details: other: net uptake (OCT1 minus empty vector), HEK293, 0.1-1000 µM substrate, Michaelis–Menten; pH 7.4
[17] = other: net uptake (OCT1 minus empty vector), HEK293, 0.1-1000 µM substrate, Michaelis–Menten

## CNC(=C[N+](=O)[O-])NCCSCc1ccc(CN(C)C)o1 [Ranitidin, ranitidine]
Human OCT1*1 (wild-type) [1]
  OCT1 transport category: ++ (very good substrates of OCTs that have an intrinsic clearance >15 or show an uptake ratio >10)
Human OCT1*1 (wild-type) [2]; net uptake (OCT1 minus empty vector), HEK293, 0.1-1000 µM substrate, Michaelis–Menten
  Vmax (±SEM): 1047 ± 123 pmol/mg Protein/min
OCT1 (wild-type, OCT1*1)
  Km: 54.5 ± 7.2 µM
OCT3
  OCT3 transport category: 0 (no transport by OCT1, OCT2, and OCT3 occurred (i.e., no kinetic parameters or uptake ratio <2 without significance))
wild-type human OCT2
  OCT2 transport category: + (good substrates of OCTs when the intrinsic clearance is between 5–15 or the ratio is 2–10)

## Nc1nnc(-c2cccc(Cl)c2Cl)c(N)n1 [Lamotrigine, lamotrigine]
Human OCT1*1 (wild-type) [2]
  Clint (±SEM): 2.77 ± 5.66 µL/mg Protein/min
hCMEC/D3
  Km: 62 µM
OCT3
  OCT3 transport category: +/− (poor transport with a Clint < 5 or ratio between 1–2 with statistical significance (p < 0.05))

## CNS(=O)(=O)Cc1ccc2[nH]cc(CCN(C)C)c2c1 [Sumatriptan, sumatriptan]
Human OCT1*1 (wild-type) [1]; 1 µM and 100 µM substance
  uptake ratio by OCT1 (normalised to empty vector): up to 30
Human OCT1*1 (wild-type) [1]
  OCT1 transport category: ++ (very good substrates of OCTs that have an intrinsic clearance >15 or show an uptake ratio >10)
[3]
  Km: ~17.8 µg/mL
[4]
  typical human maximum blood concentration: about 30 µg/L
Human OCT1*1 (wild-type) [2]
  Clint (±SEM): 36.8 ± 7.32 µL/mg Protein/min
OCT3; 1 µM substance
  uptake by OCT3 (normalised to empty vector): relevant uptake
OCT3
  OCT3 transport category: + (good substrates of OCTs when the intrinsic clearance is between 5–15 or the ratio is 2–10)
wild-type human OCT2
  OCT2 transport category: ++ (very good substrates of OCTs that have an intrinsic clearance >15 or show an uptake ratio >10)

B1: human OCT1*1 (wild-type) (Homo sapiens) (protein)
chain: T1 sequence (O15245 1-554)
[5]
  Km: 142 ± 189 µM
[6]
  Km: 232 ± 43.0 µM
[7]
  Km: 881 ± 910 µM
[8]
  Km: 3326 ± 1458 µM
[9]
  Km: 4.78 ± 1.24 µM
[10]
  Km: 1123 ± 335 µM
  Vmax: 0.0069 µmol/min/mg
  Vmax/Km: 6.15 µL/min/mg
[11]
  Km: 60 µM and 58.9 ± 5.1 µM
  Vmax: 0.00217 µmol/min/mg
  Vmax/Km: 36.8 µL/min/mg
[12]
  Km: 363 ± 163 µM
[13]
  Km: 647 ± 335.6 µM
  Vmax: 0.00384 µmol/min/mg
  Vmax/Km: 5.94 µL/min/mg
[14]
  Km: 124 ± 136 µM
[15]; other: OCT1 wild-type, rounded in discussion
  Km: 1000 µM
[15]; [17]
  Km: 1177 ± 744 µM
  Vmax: 0.00412 µmol/min/mg
  Vmax/Km: 3.5 µL/min/mg
[16]
  Km: 1194 ± 193 µM
  Vmax: 0.00307 µmol/min/mg
  Vmax/Km: 2.57 µL/min/mg
